Target: T1, HLA-A*02:01 on TAP deficient T2 cells (human)
T1 construct: whole, on cells; Endogenous HLA class I of T2 cells, detected with the pan HLA antibody W6/32
Assay: T2 cell HLA stabilization assay, flow cytometry with pan HLA antibody W6/32
Method: HLA-A*02:01 TAP deficient T2 cells (2×10⁵ in 200 μL) were incubated with peptides (25 μg per ml in 10% DMSO in PBS) in AIM-V plus 1% human serum at 25° C. overnight to facilitate peptide binding by reducing HLA turnover. The following day the cells were returned to 37° C. for 5 hours then stained with a pan HLA antibody (FITC-conjugated HLA, B, C; clone W6/32). HLA class I expression was measured by flow cytometry, and the percent increase in mean fluorescence intensity over cells incubated with 10% DMSO alone was calculated.

B1: YMYNKVAVL peptide (Atl2/ATL2 alternative splicing variant) (peptide)
peptide: YMYNKVAVL
notes: Peptide added to T2 cells at 25 ug per ml; also called one of the SYY peptides; candidate therapeutic peptide
binding result: binds

B2: SMLEKTALL peptide (Sfxn5/SFXN5 alternative splicing variant) (peptide)
peptide: SMLEKTALL
notes: as for B1
binding result: binds

From US20250352576A1 (University of California, published 2025)
